# Source: the supplement of paper PMC7877785
# ± gives the uncertainty stated by the source.
# Assay: self-splicing fitness, log relative to wild type (ln ratio); higher = more splicing; Tetrahymena group I intron in knt gene, E. coli kanamycin selection, DiMSum; sequences stand for … in CUCUCU…GGAGGGAAAAGUUAUCAGGCAUGCACCUGGUAGCUAGUCUUUAAACCAAUAGAUUGCAUCGGUUUAAAAGGCAAGACCGUCAAAUUGCGGGAAAGGGGUCAACAGCCGUUCAGUACCAAGUCUCAGGGGAAACUUUGAGAUGGCCUUGCAAAGGGUAUGGUAAUAAGCUGACGGACAUGGUCCUAACCACGCAGCCAAGUCCUAAGUCAACAGAUCUUCUGUUGAUAUGGAUGCAGUUCACAGACUAAAUGUCGGUCGGGGAAGAUGUAUUCUUCUCAUAAGAUAUAGUCGGACCUCUCCUUAAUGGGAGCUAGCGGAUGAAGUGAUGCAACACUGGAGCCGCUGGGAACUAAUUUGUAUGCGAAAGUAUAUUGAUUAGUUUUGGAGUACUCGUGGUCG
# How it was run: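 Pooled colonies went to amplicon sequencing on an Illumina HiSeq 2500 after six replicate transformations. The plates were LB agar with 100 μg/mL carbenicillin, 50 μM IPTG and 0.2% rhamnose, with or without 25 μg/mL kanamycin, incubated overnight at 37°C or 30°C. The E. coli BL21(DE3) library had all eight P1ex-region intron nucleotides randomised, the intron placed in the knt kanamycin-resistance gene on pET-22b(+). DiMSum fitness is the error-weighted combination of replicate fold changes, kanamycin against none, normalised to wild type.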
Sequence,self-splicing fitness (ln) (30 °C),self-splicing fitness (ln) (37 °C)
CCAUAGCAAUAUUACGUUCA,-3.17 ± 0.26,-2.6 ± 0.44
CCAUAGCAAUAUUACGUUGU,-4.79 ± 0.41,-2.66 ± 0.19
CCCAAGCAAUAUUACGAAAG,-3.49 ± 0.17,-3.39 ± 0.31
CCCAAGCAAUAUUACGAACA,-3.02 ± 0.27,-3.04 ± 0.26
CCCAAGCAAUAUUACGAACC,–,-2.59 ± 0.35
CCCAAGCAAUAUUACGAACU,-3.54 ± 0.34,-2.91 ± 0.38
CCCAAGCAAUAUUACGACUG,-3.41 ± 0.14,-3.49 ± 0.23
CCCAAGCAAUAUUACGAGCA,-3.01 ± 0.24,-2.95 ± 0.25
CCCAAGCAAUAUUACGAGGC,-4.03 ± 0.15,-3.25 ± 0.18
CCCAAGCAAUAUUACGAUAC,-3.63 ± 0.46,–
CCCAAGCAAUAUUACGAUAU,-3.29 ± 0.19,-3.25 ± 0.15
CCCAAGCAAUAUUACGAUUA,-2.97 ± 0.19,-2.9 ± 0.27
CCCAAGCAAUAUUACGCGAC,-3.2 ± 0.21,-2.29 ± 0.19
CCCAAGCAAUAUUACGCGAG,-3.22 ± 0.24,-2.58 ± 0.2
CCCAAGCAAUAUUACGCGGC,-2.8 ± 0.2,-2.38 ± 0.23
CCCAAGCAAUAUUACGCGUC,-3.06 ± 0.16,-2.6 ± 0.29
CCCAAGCAAUAUUACGCGUU,-4.28 ± 0.18,-1.74 ± 0.12
CCCAAGCAAUAUUACGGAAC,-3.54 ± 0.21,-2.62 ± 0.25
CCCAAGCAAUAUUACGGGAA,-2.75 ± 0.17,-1.96 ± 0.16
CCCAAGCAAUAUUACGGGCU,-3.61 ± 0.18,-2.31 ± 0.17
CCCAAGCAAUAUUACGGUAA,-2.25 ± 0.14,-1.4 ± 0.16
CCCAAGCAAUAUUACGUGCU,-2.08 ± 0.11,-2.6 ± 0.2
CCCAAGCAAUAUUACGUGGC,-3.5 ± 0.13,-2.8 ± 0.18
CCCCAGCAAUAUUACGAACA,-2.51 ± 0.17,-2.85 ± 0.28

Sequence,self-splicing fitness (ln) (30 °C),self-splicing fitness (ln) (37 °C)
CCCCAGCAAUAUUACGACUA,-2.66 ± 0.17,-2.93 ± 0.28
CCCCAGCAAUAUUACGAGCA,-1.5 ± 0.14,-3.13 ± 0.34
CCCCAGCAAUAUUACGCCCG,-1.79 ± 0.17,-2.57 ± 0.28
CCCCAGCAAUAUUACGCGAA,-4.21 ± 0.15,-1.69 ± 0.14
CCCCAGCAAUAUUACGCUGG,-2.76 ± 0.11,-1.73 ± 0.14
CCCCAGCAAUAUUACGGGCG,-3.69 ± 0.15,-1.94 ± 0.11
CCCCAGCAAUAUUACGGUAU,-3.72 ± 0.13,-2.88 ± 0.2
CCCCAGCAAUAUUACGGUCA,-2.71 ± 0.16,-0.931 ± 0.13
CCCCAGCAAUAUUACGUACC,-4.07 ± 0.18,-3.36 ± 0.35
CCCCAGCAAUAUUACGUAGA,-2.95 ± 0.12,-2.7 ± 0.18
CCCCAGCAAUAUUACGUCGA,-4.09 ± 0.23,-2.27 ± 0.15
CCCCAGCAAUAUUACGUUCA,-2.97 ± 0.12,-2.84 ± 0.2
CCCGAGCAAUAUUACGAACA,-2.93 ± 0.3,-2.51 ± 0.35
CCCGAGCAAUAUUACGACAU,-3.865 ± 0.026,-2.88 ± 0.041
CCCGAGCAAUAUUACGAUAC,-2.29 ± 0.27,-1.57 ± 0.36
CCCGAGCAAUAUUACGAUGU,-3.46 ± 0.25,-2.13 ± 0.27
CCCGAGCAAUAUUACGCCAC,-3.54 ± 0.26,-2.84 ± 0.31
CCCGAGCAAUAUUACGCUCU,–,-2.7 ± 0.29
CCCGAGCAAUAUUACGCUGA,-3.44 ± 0.35,-2.26 ± 0.2
CCCGAGCAAUAUUACGCUGC,-2.93 ± 0.21,-2.63 ± 0.3
CCCGAGCAAUAUUACGGAGU,-3.46 ± 0.25,-2.87 ± 0.22
CCCGAGCAAUAUUACGGAUU,-4.16 ± 0.18,-2.55 ± 0.17
CCCGAGCAAUAUUACGGCAU,-3.28 ± 0.37,-1.85 ± 0.32
CCCGAGCAAUAUUACGGGAC,-3.05 ± 0.18,-1.89 ± 0.19
